By stoichiometry N is commonly meant a count of units in the complex or per binding partner.

Here are results for one protein from publication PMC6814260 (Chembiochem : a European journal of chemical biology, 2019).

The data set concerns the molecule itself.

B1: XoxF, lanthanide-dependent methanol dehydrogenase from Methylobacterium extorquens AM1 (enzyme, UniProt C5B120 22-601, looked up)
chain: NESVLKGVANPAEQVLQTVDYANTRYSKLDQINASNVKNLQVAWTFSTGVLRGHEGSPLVVGNIMYVHTPFPNIVYALDLDQGAKIVWKYEPKQDPSVIPVMCCDTVNRGLAYADGAILLHQADTTLVSLDAKSGKVNWSVKNGDPSKGETNTATVLPVKDKVIVGISGGEFGVQCHVTAYDLKSGKKVWRGYSIGPDDQLIVDPEKTTSLGKPIGKDSSLKTWEGDQWKTGGGCTWGWFSYDPKLDLMYYGSGNPSTWNPKQRPGDNKWSMTIWARNPDTGMAKWVYQMTPHDEWDFDGINEMILTDQKFDGKDRPLLTHFDRNGFGYTLDRATGEVLVAEKFDPVVNWATKVDLDKGSKTYGRPLVVSKYSTEQNGEDVNSKGICPAALGTKDQQPAAFSPKTGLFYVPTNHVCMDYEPFRVTYTPGQPYVGATLSMYPAPGSHGGMGNFIAWDNLQGKIKWSNPEQFSAWGGALATAGDVVFYGTLEGFLKAVDSKTGKELYKFKTPSGIIGNVMTYEHKGKQHVAVLSGVGGWAGIGLAAGLTDPNAGLGAVGGYAALSSYTNLGGQLTVFSLPNN
Take B1: the “stoichiometry N” value worked out at 2.
